Data as given in US11142588B2, “Polypeptides which bind C-X-C chemokine receptor type 4 (CXCR4) and methods of treating or reducing the risk of fibrosis and cancer” (AdAlta Limited, priority 2015, dated 2021).

Columns and labels:
[1] = tested on: Human platelet rich plasma; assay: SDF-1α induced platelet aggregation; type: cell-based; details: 10 or 20 ug/mL, 100 nM SDF-1 alpha
Protocol: Experiments were carried out to examine whether the i-bodies could block platelet aggregation induced by SDF-1α. […] In the presence of negative control i-body 21H5 (or the isotype control for 12G5: mouse IgG2a). SDF-1 induced a robust and reproducible aggregation (the descending black curves, which indicate an increase in light transmission), which matches with what has been previously published.

[2] = tested on: human CD34+ stem and progenitor cells; assay: Mobilisation of human CD34+ cells in humanised NSG mice; type: in vivo, humanized NODSIL2Rγ (NSG) mice; details: humanised NSG mouse model, compared to AMD3100
Protocol: To acquire evidence of mobilisation of human CD34^+ stem and progenitor cells using CXCR4 i-bodies, the above mobilisation experiment was conducted in humanized NODSIL2Rγ (NSG) mice. NSG mice are severely immunodeficient and lack mature T cells, B-cells and NK cells and have severely defective innate immunity, which allows engraftment of human cells without subsequent rejection. NSG mice were transplanted with freshly sorted CD34^+ cord blood cells and upon confirmation of positive human CD45/CD34 engraftment (˜4-5 weeks) were used as a mouse model for human stem cell mobilisation.
Mobilised peripheral blood was harvested and assessed for CD34^+ (human stem and progenitors).

[3] = MOG induced experimental autoimmune encephalomyelitis (EAE); type: in vivo, mouse; details: immunohistochemistry, hematoxylin and eosin
Protocol: This is the time that has been reported to be critical for infiltration of inflammatory cells across the blood brain barrier. […] It appears that blocking this migration can alleviate the symptoms of EAE.
Immunohistochemistry of the brains of the experimental mice was performed.

[4] = Bleomycin mouse model of pulmonary fibrosis; type: in vivo; details: day 4, dose not given
Excerpt: The optimal dose of Bleomycin is 2 U/mouse and the optimal time for assessing fibrocyte recruitment was confirmed at day 4. At days 4 bronchoalvelolar lavage (BAL) fluids were collected for analysis of SDF-1 concentration. One half of the lung tissue was used to make single cell suspensions of the lung and the cells used for flow cytometry and assayed for CD45+, CXCR4+ and Collagen1+ (fibrocytes). The other half of the lung tissue was Sircol stained for the presence of collagen 1 and RNA will be tested for Col-1, Col-3 and SDF-1.
SDF-1, fibrocytes and collagen deposition were monitored at Day 4. Groups were dosed with the i-body just prior to administration with Bleomycin. One half of the lung tissue was minced and washed in PBS and used to make single cell suspensions of the lung with Collagenase A and dispase treatment. The cells were then used for flow cytometry and assayed for CD45+, CXCR4+ and Collagen1+ fibrocytes. […]

[5] = tested on: HIV entry into CXCR4 expressing T-cells; assay: In vitro HIV inhibition assay; type: cell-based
[6] = tested on: normal and IPF lung fibroblasts; assay: Wound healing invasion assay of lung fibroblasts; type: cell-based, human; details: AMD3100 12 μM, 21H5 130 μg/ml
Protocol: To determine the role of CXCR4 and CXCL12 in fibroblast invasion, normal and IPF lung fibroblasts were utilized in a wound healing invasion assay. ImageLock 96 well plates (Essen Bioscience) were coated with 50 μg/ml of Basement membrane extract (BME; Trevigen) for one hour at room temperature. Normal, and fibroblasts generated from lung biopsies of idiopathic pulmonary fibrosis (IPF) patients showing slow progression or rapid progression of the disease were plated (36,000 cells per well) on the BME-coated plates and incubated overnight. […] The BME was allowed to polymerize by incubating the plate at 37° C. for 15 minutes. The plates were then inserted into an IncuCyte Zoom imaging system and images were acquired every 2 hours for approximately 50 hours. Invasion was quantified using IncuCyte software (Essen Bioscience).

[7] = tested on: Ramos tumor cells; assay: MTT cell proliferation assay; type: cell-based, human; details: 24 to 72 hrs, AM3-114 at 10 μM
Protocol: The ability of the CXCR4 molecules or polypeptides disclosed herein (i-bodies) to inhibit proliferation of Ramos tumor cells, a human Burkitt's lymphoma cell line expressing CXCR4 mentioned above, in vitro was examined in a MTT cell proliferation assay as described in (Lapteva (2005) Cancer Gene Therapy 12, 84-89). Cells were grown in a 96-well tissue culture plate and treated with a vehicle or the anti-CXCR4 body. The cells were then incubated with the MTT solution for approximately 4 hours. After this incubation period, a water-insoluble formazan dye is formed. After solubilization, the formazan dye is quantitated using a scanning multi-well spectrophotometer (ELISA reader).

[8] = Murine air pouch model with SDF-1; type: in vivo, BALB/c mice; details: intraperitoneal, 30 minutes before SDF-1 6 μg
Protocol: The ability of i-bodies to block inflammation was evaluated in an in vivo murine air pouch model. The subcutaneous (s.c.) air pouch is an in vivo model used to study acute and chronic inflammation (Durate et al, Models of Inflammation: Carrageenan Air Pouch, Current Protocols in Pharmacology 5.6.1-5.6.8, March 2012). Injection of irritants into an air pouch in rats or mice induces an inflammatory response that can be quantified by the volume of exudate produced, the infiltration of cells, and the release of inflammatory mediators. An air pouch, is generated by injection of sterile air under the skin of the back of the mouse. […] Air pouch lavage fluid is then analyzed for cell trafficking and cytokine release.
The air pouch assay was performed on 7-week-old BALB/c mice. On days 1 and 3, 0.2 ml/g initial body weight (IBW) of sterile air was injected under the back skin to create the pouch. […] Thirty minutes later, SDF-1 (6 μg) was injected into the pouch. Four hours later, the mice were killed in a CO2 chamber and the air pouch was washed. Cells were collected, counted, and characterized by flow cytometry.

B1: 21H5: control i-body which does not bind to CXCR4, isotype control, SEQ ID NO: 82 (protein)
chain: LQVDIVPSQGEISVGESKFFLCQVAGDAKDKDISWFSPNGEKLTPNQQRISVVWNDDSSSTLTIYNANIDDAGIYKCVVTGSDAMSNYSYPISESEATVNVKIFQ
modifications: amino acid sequence encoding 21H5 i-body
[1]
  blocking of SDF-1α induced platelet aggregation: Neither the negative control i-body nor the control MAb had any effect
[2]
  mobilisation of human CD34+ stem cells: do not mobilise stem cells
[3]
  inflammatory T-cell infiltration into the white matter of the brain: Dramatic T-cell infiltration
[4]
  recruitment of fibrocytes into the lungs: Neither the vehicle alone nor the negative control i-body affected recruitment
[5]
  effect in HIV inhibition assay: no effect
[6]
  invasion / motility of normal, slow and rapid IPF lung fibroblast lines: had no effect
[7]
  growth of RAMOS cells: little effect on cell growth
[8]
  cell migration / leukocyte infiltration into the air pouch: did not inhibit cell migration
